Experiment [1] has as its target T1, PR (Homo sapiens, UniProt P06401).
T1 construct: expressed in transfected cells; host or cells: DU145, PC-3
T1 sequence (P06401 1-933): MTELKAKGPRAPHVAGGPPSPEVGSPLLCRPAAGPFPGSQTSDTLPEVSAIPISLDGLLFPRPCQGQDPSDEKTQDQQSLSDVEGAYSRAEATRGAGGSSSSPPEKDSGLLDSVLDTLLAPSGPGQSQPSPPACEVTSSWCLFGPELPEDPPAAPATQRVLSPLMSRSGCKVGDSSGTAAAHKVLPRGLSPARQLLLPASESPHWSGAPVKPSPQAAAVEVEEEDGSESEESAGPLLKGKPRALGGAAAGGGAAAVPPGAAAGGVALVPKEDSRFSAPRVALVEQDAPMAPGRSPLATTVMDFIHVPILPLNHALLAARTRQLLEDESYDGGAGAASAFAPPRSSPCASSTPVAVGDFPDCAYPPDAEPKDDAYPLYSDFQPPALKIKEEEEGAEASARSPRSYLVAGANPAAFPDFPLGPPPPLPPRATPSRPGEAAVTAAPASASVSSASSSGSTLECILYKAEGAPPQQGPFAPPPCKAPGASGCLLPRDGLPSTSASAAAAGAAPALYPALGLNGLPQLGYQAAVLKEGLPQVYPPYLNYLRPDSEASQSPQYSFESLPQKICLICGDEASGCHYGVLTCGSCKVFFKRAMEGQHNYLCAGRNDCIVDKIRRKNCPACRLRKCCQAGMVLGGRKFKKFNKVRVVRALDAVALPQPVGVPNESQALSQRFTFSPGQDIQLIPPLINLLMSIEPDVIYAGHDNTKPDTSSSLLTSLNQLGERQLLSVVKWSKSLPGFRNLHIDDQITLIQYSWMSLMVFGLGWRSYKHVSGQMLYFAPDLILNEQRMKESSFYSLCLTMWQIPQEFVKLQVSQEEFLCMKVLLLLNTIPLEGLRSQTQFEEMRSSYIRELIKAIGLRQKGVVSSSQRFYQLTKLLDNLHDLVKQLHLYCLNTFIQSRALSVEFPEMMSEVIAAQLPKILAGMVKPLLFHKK
Put plainly: PR transactivation reporter gene assay (Example 2). In kind it is cell-based. As to the method: 12. […] PC-3 (A) or DU145 (B) cells were transfected with MMTV-CAT (2.5 μg), steroid receptor expression plasmid (AR, PR, or GR; 1.0 μg for PC-3 and 0.75 μg for DU145), and pSG5-C′-ARA54 (C′) or pSG5-mt-ARA54 (mt) (8.0 μg for PC-3 and 6.75 μg for DU145), with (for DU145) or without (for PC-3) pSG5-fl-ARA54 (2.25 μg). The total amount of DNA was adjusted to 12.5-13.25 μg with pSG5 for each transfection. […] The CAT activity is presented relative to that of vector alone with cognate ligand in each panel (black bars; set as 100%). Values represent the mean±SD of at least three determinations.
394. The human prostate cancer cell lines, LNCaP, PC-3, and DU145, were maintained in Dulbecco's minimum essential medium (DMEM) containing 5% fetal calf serum (FCS). Transfections using the calcium phosphate precipitation method and chloramphenicol acetyltransferase (CAT) and luciferase (Luc) assays were performed as previously described (Miyamoto et al. (1998) Proc. Natl. Acad. Sci. U.S.A. 95, 7379-7384; Yeh et al. (1999) Endocrine 11, 195-202; Miyamoto et al. (1998) Proc. Natl. Acad. Sci. U.S.A. 95, 11083-11088). Briefly, 1-4×10^5 cells were plated on 35-mm or 60-mm dishes 24 h before adding the precipitation mix containing a CAT or Luc reporter gene and a β-galactosidase expression plasmid (pCMV-β-gal) as an internal control for normalization of transfection efficiency. The medium was changed to phenol-red-free DMEM with 5% charcoal-stripped FCS 1 h before transfection. In each experiment, the total amount of transfected DNA per dish was maintained as a constant by addition of empty expression vector (pSG5 or pVP16, as appropriate). […] The cells were then harvested and whole cell extracts were used for CAT or Luc assay. The CAT activity was quantitated with a PhosphorImager (Molecular Dynamics). The Luc assay was determined using a Dual-Luciferase Reporter Assay System (Promega) and luminometer.

The target in experiment [2] is T1, PR. Put plainly: PR transcription activity, MMTV-CAT reporter (Example 1). Type of experiment: cell-based. As to conditions: DU145 cells. The protocol: (§1) 366. Human prostate cancer DU145 or PC3 cells, or human lung carcinoma cells NCI H1299 were grown in Dulbecco's minimal essential medium (DMEM) containing penicillin (25 U/ml), streptomycin (25˜g/ml), and 5% fetal calf serum (FCS). One hour before transfection, the medium was changed to DMEM with 5% charcoal-stripped FCS. Phenol red-free and serum-free media were used on the experiments employing E2 or TGF-β, respectively. A β-galactosidase expression plasmid, pCMV-β-gal, was used as an internal control for transfection efficiency.
(§2) 367. Cells were transfected using the calcium phosphate technique (Yeh, et al. Molec. Endocrinol. 8:77-88, 1994). The medium was changed 24 hr posttransfection and the cells treated with either steroid hormones or hydroxyflutamide, and cultured for an additional 24 hr. Cells were harvested and assayed for CAT activity after the cell lysates were normalized by using β-galactosidaseas an internal control. Chloramphenicol acetyltransferase (CA) activity was visualized by PhosphorImager (Molecular Dynamics) and quantitated by ImageQuant software (Molecular Dynamics).

Another experiment deals with T2, ER (Homo sapiens, UniProt P03372).
T2 construct: expressed in transfected cells; host or cells: DU145
T2 sequence (P03372 1-595): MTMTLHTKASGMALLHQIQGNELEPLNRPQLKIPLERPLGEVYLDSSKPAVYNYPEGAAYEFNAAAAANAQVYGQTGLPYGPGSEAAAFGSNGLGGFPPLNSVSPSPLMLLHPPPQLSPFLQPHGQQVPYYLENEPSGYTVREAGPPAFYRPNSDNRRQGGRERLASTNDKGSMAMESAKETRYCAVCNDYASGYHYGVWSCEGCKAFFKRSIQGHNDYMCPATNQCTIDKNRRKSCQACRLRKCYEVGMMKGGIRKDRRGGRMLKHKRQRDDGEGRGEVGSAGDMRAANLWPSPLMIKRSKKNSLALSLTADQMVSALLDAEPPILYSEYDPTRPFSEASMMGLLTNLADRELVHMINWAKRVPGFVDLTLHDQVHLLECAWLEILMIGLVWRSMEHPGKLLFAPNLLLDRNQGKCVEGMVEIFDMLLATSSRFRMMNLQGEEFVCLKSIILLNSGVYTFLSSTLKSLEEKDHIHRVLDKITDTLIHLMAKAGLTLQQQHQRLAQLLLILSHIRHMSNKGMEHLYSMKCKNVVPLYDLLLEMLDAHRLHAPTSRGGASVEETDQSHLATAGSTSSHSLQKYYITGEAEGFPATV
Put plainly: ER transcription activity, ERE-CAT reporter (Example 1). Type of experiment: cell-based. As to conditions: DU145 cells. The protocol: as §1, §2

In a further experiment the test system is AR. As to conditions: prostate cancer cells; androgens or HF; cited from earlier work.

B1: C′-ARA54: C-terminal region (amino acids 361-474) of ARA54 (protein)
chain: RNEYLQADEANKRLLDQRYGKRVIQKALEEMESKEWLEKNSKSCPCCGTPIEKLDGCNKMTCTGCMQYFCWICMGSLSRANPYKHFNDPGSPCFNRLFYAVDVDDDIWEDEVED
modifications: Homo sapien
notes: C-terminal region (amino acids 361-474) of ARA54
Take B1: the “effect on fl-ARA54-induced PR transcription” value with PR [1] (DU145 cells) is “little effect”. Further, in the experiment with PR [1] (PC-3 cell line, presence of P), the “effect on PR-mediated transactivation” value was “only a marginal effect”.

B2: ARA54: 54 kDa protein that interacts with AR in an androgen-dependent manner; AR coactivator (protein)
chain: MSSEDREAQEDELLALASIYDGDEFRKAESVQGGETRIYLDLPQNFKIFVSGNSNECLQNSGFEYTICFLPPLVLNFELPPDYPSSSPPSFTLSGKWLSPTQLSALCKHLDNLWEEHRGSVVLFAWMQFLKEETLAYLNIVSPFELKIGSQKKVQRRTAQASPNTELDFGGAAGSDVDQEEIVDERAVQDVESLSNLIQEILDFDQAQQIKCFNSKLFLCSICFCEKLGSECMYFLECRHVYCKACLKDYFEIQIRDGQVQCLNCPEPKCPSVATPGQVKELVEAELFARYDRLLLQSSLDLMADVVYCPRPCCQLPVMQEPGCTMGICSSCNFAFCTLCRLTYHGVSPCKVTAEKLMDLRNEYLQADEANKRLLDQRYGKRVIQKALEEMESKEWLEKNSKSCPCCGTPIEKLDGCNKMTCTGCMQYFCWICMGSLSRANPYKHFNDPGSPCFNRLFYAVDVDDDIWEDEVED
Take B2: the “induction of PR transcription” value with PR [1] (DU145 cells, cotransfected with PR) is given as 2.9 fold. Further, the “enhancement of the transcription activity of PR” value with PR [2] is 3-5 fold. The “effect on ER transcription activity” value in the experiment with ER is on record as “less than 2 fold”. In addition, in the experiment on AR, the “enhancement of transactivation of wild-type AR and LNCaP mutant AR” value is 2-6 fold.

The values above are taken from patent publication US20060270591A1, “Androgen receptor coregulators” (priority 2002, published 2006).
